Where two headings read alike, the source gives them in different places.
Legend:
[1] = target: T1, GATA3 DBD (N- and C-finger) (human, UniProt P23771-2 260-370); assay: crystal structure
[2] = target: T1, GATA3 DBD (N- and C-finger); assay: SPR
[3] = target: T1, GATA3 DBD (N- and C-finger); assay: SPR; remark: listed apart in the source
[4] = target: T1, GATA3 DBD (N- and C-finger); assay: crystal structure; remark: listed apart in the source

B1: Complex 1 palindromic GATA site, 1-bp spacer, 20-mer (dsDNA)
DNA 1: AATGTCCATCTGATAAGACG
DNA 2: CGTCTTATCAGATGGACATT
binding result [1]: binds

B2: single GATA site SPR probe (dsDNA)
DNA 1: CTCCCGCTCGCTCAGAGATAAGGCCTTAT
DNA 2: ATAAGGCTTTATCTCTGAGCGAGCGGGAG
Kd [2]: ~60 nM

B3: palindromic GATA site SPR probe (dsDNA)
DNA 1: CTCCCGCTCGCTATCAGATAAGGCCTTAT
DNA 2: ATAAGGCCTTATCTGATAGCGAGCGGGAG
Kd [3]: ~6 nM

B4: Complex 2/3 palindromic GATA site, 3-bp spacer, 20-mer (dsDNA)
DNA 1: TTCCTAAATCAGAGATAACC
DNA 2: GGTTATCTCTGATTTAGGAA
binding result [4]: binds
